The values that follow are results of earlier work, collected in PMC8619967.

Read-outs that look alike come from different tables or passages of the source.

Data set [1] deals with HIV-1 capsid (Human immunodeficiency virus 1) (UniProt O93182).
Data set [2] concerns the target HIV-1 CA-NC nanotubes CA-NC (Human immunodeficiency virus 1) (UniProt O93182).
The target in data set [3] is HIV-1 capsid (Human immunodeficiency virus 1) (UniProt O93182). The source holds these as a separate data set.

Chain of HIV-1 capsid (Human immunodeficiency virus 1) (O93182 133-363): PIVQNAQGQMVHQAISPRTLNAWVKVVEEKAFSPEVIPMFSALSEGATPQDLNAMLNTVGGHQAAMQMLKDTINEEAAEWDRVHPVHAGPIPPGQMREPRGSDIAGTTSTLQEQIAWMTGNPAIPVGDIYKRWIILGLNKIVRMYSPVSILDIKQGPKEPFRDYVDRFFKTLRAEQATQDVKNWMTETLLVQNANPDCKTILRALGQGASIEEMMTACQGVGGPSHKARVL
Chain of TRN-1 (Q92973 whole entry): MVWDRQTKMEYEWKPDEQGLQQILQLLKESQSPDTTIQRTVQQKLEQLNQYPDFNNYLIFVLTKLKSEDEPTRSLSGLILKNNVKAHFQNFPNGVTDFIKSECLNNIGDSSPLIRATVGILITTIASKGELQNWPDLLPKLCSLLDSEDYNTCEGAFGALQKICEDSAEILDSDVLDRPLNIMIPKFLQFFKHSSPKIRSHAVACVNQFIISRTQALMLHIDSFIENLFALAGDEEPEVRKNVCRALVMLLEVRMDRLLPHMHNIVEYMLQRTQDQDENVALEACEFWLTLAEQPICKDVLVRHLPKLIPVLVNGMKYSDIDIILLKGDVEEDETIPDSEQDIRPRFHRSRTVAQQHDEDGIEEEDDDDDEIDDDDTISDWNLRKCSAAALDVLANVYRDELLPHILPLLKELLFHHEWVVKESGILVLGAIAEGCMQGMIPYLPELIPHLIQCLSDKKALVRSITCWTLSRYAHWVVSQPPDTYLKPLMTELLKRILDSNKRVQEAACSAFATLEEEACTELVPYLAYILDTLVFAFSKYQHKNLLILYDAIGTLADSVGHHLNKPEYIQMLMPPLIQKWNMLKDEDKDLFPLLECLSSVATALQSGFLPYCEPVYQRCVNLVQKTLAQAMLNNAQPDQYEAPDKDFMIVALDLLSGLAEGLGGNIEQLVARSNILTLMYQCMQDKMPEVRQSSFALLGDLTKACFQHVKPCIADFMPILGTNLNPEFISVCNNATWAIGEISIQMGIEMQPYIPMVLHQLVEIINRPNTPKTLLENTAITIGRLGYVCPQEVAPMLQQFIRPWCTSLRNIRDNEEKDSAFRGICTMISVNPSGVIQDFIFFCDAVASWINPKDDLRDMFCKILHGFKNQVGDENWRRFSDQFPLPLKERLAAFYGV
Chain of HIV-1 CA-NC nanotubes CA-NC (Human immunodeficiency virus 1) (O93182 133-433): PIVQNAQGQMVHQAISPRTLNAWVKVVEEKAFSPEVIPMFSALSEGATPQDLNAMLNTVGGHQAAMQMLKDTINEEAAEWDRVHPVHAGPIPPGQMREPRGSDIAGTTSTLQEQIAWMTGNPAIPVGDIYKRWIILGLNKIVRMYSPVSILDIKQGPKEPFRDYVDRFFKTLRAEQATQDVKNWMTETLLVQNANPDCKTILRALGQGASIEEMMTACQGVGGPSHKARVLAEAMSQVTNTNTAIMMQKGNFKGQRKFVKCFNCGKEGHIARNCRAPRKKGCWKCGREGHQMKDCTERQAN
Chain of NUP358 CycH (P49792 3067-3223): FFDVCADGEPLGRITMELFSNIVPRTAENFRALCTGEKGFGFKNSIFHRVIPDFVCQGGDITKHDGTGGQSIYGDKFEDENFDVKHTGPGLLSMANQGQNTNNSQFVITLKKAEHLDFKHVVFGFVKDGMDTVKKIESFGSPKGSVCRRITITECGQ

The Kd is the equilibrium constant for the complex coming apart. On to NUP153 FG-motif (from UniProt P49790), for which the dissociation constant Kd in data set [1] was 50 µM.

As to TRN-1 (from UniProt Q92973), the equilibrium dissociation constant (Kd) in data set [2] is 0.07 µM.

With NUP358 CycH (from UniProt P49792), the Kd in data set [3] was 200 µM.
